Assay results published in patent US20260001935.

Tested on: aflibercept
Sequence (chain, as listed by the source): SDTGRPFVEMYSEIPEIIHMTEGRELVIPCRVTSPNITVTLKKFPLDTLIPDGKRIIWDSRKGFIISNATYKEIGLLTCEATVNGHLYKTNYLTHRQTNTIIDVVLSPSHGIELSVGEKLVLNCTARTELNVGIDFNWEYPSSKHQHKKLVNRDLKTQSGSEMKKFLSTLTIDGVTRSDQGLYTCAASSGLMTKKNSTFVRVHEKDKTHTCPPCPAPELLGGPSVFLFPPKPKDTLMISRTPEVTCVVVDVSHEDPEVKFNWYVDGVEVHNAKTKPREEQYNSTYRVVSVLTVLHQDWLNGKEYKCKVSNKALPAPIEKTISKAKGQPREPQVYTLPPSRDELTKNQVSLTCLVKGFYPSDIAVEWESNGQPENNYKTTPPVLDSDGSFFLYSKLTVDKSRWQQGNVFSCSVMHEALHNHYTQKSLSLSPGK

Sequence of cathepsin D (Chinese hamster ovary host cell protein; recombinant CHO Cathepsin D with mmh tag) (chain, as listed by the source): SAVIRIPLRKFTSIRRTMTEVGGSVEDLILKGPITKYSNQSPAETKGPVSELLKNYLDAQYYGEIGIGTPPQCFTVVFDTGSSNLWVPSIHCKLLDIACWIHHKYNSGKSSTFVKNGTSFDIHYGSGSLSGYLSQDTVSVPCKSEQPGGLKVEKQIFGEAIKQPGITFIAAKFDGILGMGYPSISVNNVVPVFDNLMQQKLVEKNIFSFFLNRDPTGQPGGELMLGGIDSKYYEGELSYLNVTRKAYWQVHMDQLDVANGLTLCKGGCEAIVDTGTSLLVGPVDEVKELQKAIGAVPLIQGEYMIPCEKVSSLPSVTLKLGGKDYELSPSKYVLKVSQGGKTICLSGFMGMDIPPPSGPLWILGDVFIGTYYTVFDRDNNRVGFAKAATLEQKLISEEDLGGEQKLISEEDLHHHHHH

Substance: cathepsin D (Chinese hamster ovary host cell protein; recombinant CHO Cathepsin D with mmh tag)
- NR-1 band formation, and Y/L cleavage: the results demonstrated a correlation between spiked-in cathepsin D and NR-1 band formation, and Y/L cleavage
